Assay results: the supplement of paper PMC10126150
± gives the standard deviation of the averaged measurements.

These sequences were tested on ATP (assay: switch fluorescence ratio, 500 uM ATP over buffer (Cy3 cluster intensity, sum of 5 cycles each) (fold (ratio)); higher = stronger signal-on switching upon ATP binding; sequences stand for … in TCGTCGGCAGCGTCAGATGTGTATAAGAGACAGTTTTTTTTTTTTTTTTTTTTTTTTT…TC). Conditions: aptamer strand: ATP DNA aptamer (quencher-CACCTGGGGGAGTATTGCGGAGGAAGG + anchor), 100 nM annealed; ATP concentration: 500 uM.
Outline: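 Clusters with intensities outside 100-1000 RFU were excluded. The remaining Cy3-labelled switching-strand clusters on a modified Illumina MiSeq flow-cell had been annealed to 100 nM quencher-labelled ATP aptamer and imaged in selection buffer, then after 15 min with 500 uM ATP at 22 °C, for five cycles separated by NaOH stripping and re-annealing. The fluorescence ratio, averaged per switch-domain sequence, is each cluster's summed target-cycle Cy3 intensity over its summed buffer-cycle Cy3 intensity.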
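Also: ATP exposure 15 min at 22 °C before imaging.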

| Sequence | switch fluorescence ratio |
| --- | --- |
| CGGGTTGTGT | 1 ± 0.02 |
| AGGTGCCTG | 0.971 ± 0.035 |
| GCAGCCTGCT | 0.985 ± 0.032 |
| AGGCCGGAGC | 1.06 ± 0.036 |
| ATTATCAGTT | 0.987 ± 0.021 |
| TGGATGCTTG | 1.01 ± 0.045 |
| ATGGGTGTAC | 1.01 ± 0.016 |
| ATGAGCTATT | 1.03 ± 0.027 |
| TTGGTCGCGG | 0.97078 ± 5.7e-05 |
| TACGGTGTGG | 0.989 ± 0.04 |
| TTCTTTACGG | 0.986 ± 0.026 |
| CTGTTTAGGG | 1.01 ± 0.018 |
| TGCAATGGGG | 1.12 ± 0.07 |
| TCCAGGGTTT | 1.06 ± 0.04 |
| GGGATTTATG | 1.01 ± 0.036 |
| TTAAAGTTGC | 1.02 ± 0.038 |
| AAGTGGGCGT | 1.01 ± 0.046 |
| GCCTTAACGG | 1.01 ± 0.021 |
| ATGGGTGATC | 1.01 ± 0.011 |
| CTGCGTGGAG | 1.03 ± 0.026 |
| TGTGGGTATA | 0.995 ± 0.02 |
| TTTTTTCCCA | 1.01 ± 0.011 |
| AAAGATGCGG | 1.01 ± 0.066 |

| Sequence | switch fluorescence ratio |
| --- | --- |
| GGCATAGAGG | 1.03 ± 0.0032 |
| TGTGCATCT | 1.01 ± 0.015 |
| TAGGAAAAAA | 1.03 ± 0.033 |
| TATAAGTTGT | 1 ± 0.011 |
| GTTCTTTTTT | 0.9511 ± 0.0071 |
| GATATGTTCC | 1.13 ± 0.084 |
| AGTAAATGGA | 0.9854 ± 0.0055 |
| AGGGGTGTG | 1 ± 0.046 |
| TGAGATACGA | 1.0108 ± 0.0001 |
| TAGGCCCCTG | 0.985 ± 0.041 |
| TTTGTAATTG | 1.008 ± 0.01 |
| CACATGACAC | 1.13 ± 0.015 |
| GGGGTTTTAT | 1.01 ± 0.018 |
| CGGCGGGCTT | 1.02 ± 0.018 |
| TTTGTTTGAA | 0.962 ± 0.023 |
| TGGGGGAGGC | 0.973 ± 0.042 |
| GCTATTATAC | 1.47 ± 0.0019 |
| AAATCCCGTA | 1.01 ± 0.052 |
| CGGGCATGGG | 1.01 ± 0.029 |
| ATATTCGTG | 0.985 ± 0.013 |
| TACATGGGTA | 0.9583 ± 0.0072 |
| TTATCGGTAT | 1 ± 0.042 |
| AGTATATAGT | 1.004 ± 0.0073 |

| Sequence | switch fluorescence ratio |
| --- | --- |
| AAGGCGGCAT | 1 ± 0.044 |
| TGGTTTTGC | 1.01 ± 0.023 |
| GACTGGTTGC | 1 ± 0.053 |
| TATTGATAAA | 0.991 ± 0.058 |
| GAAGGCCTAG | 0.9763 ± 0.0042 |
| TGCAGCATCT | 1.13 ± 0.032 |
| GGTTGGAGTT | 0.984 ± 0.0049 |
| GACGAGATAG | 1.17 ± 0.076 |
| TGTGTGATAC | 1.549 ± 0.0055 |
| CTTGTAATGT | 1.02 ± 0.011 |
| TTCACGGGTT | 1.01 ± 0.021 |
| TGCTGGGGGA | 1.01 ± 0.025 |
| TGTGATTTGT | 0.9702 ± 0.0032 |
| AGCAAGAGGC | 1.26 ± 0.34 |
| GAATCGGCGT | 0.991 ± 0.058 |
| AGGGTTTGTT | 1.02 ± 0.04 |
| GCACTAAACT | 1.05 ± 0.057 |
| CTGGGTCGGG | 0.992 ± 0.0079 |
| ACAATTTATT | 1.02 ± 0.051 |
| TCAGAGTGTG | 0.989 ± 0.019 |
| CGACGTGTGG | 1.02 ± 0.03 |
| AGCTTGATGT | 1.02 ± 0.053 |
| TCAAAGTGTA | 0.968 ± 0.064 |

| Sequence | switch fluorescence ratio |
| --- | --- |
| TCACAGGGGG | 1.14 ± 0.12 |
| AAGGGCCGTG | 1.02 ± 0.04 |
| TGAGGGGTGG | 0.961 ± 0.038 |
| GTTTTAGATA | 0.993 ± 0.031 |
| ATGTGGATGG | 0.976 ± 0.023 |
| CTTTACTCAC | 1.27 ± 0.019 |
| ATGGGTGGG | 0.965 ± 0.032 |
| TAGCGTTTGG | 1.01 ± 0.045 |
| ATTAGAATGG | 1 ± 0.01 |
| AAGGGCCAGC | 0.9896 ± 0.0042 |
| TAATGGAGGG | 0.965 ± 0.047 |
| ACGTAACATG | 1.24 ± 0.015 |
| GGGTTAACGT | 0.987 ± 0.017 |
| TAACAGGGGG | 0.995 ± 0.017 |
| TGGGTGTCGG | 1.04 ± 0.019 |
| TGTTGTTAAT | 0.999 ± 0.019 |
| AGAAAAGAA | 1 ± 0.036 |
| ACTCCTGGTT | 1.01 ± 0.014 |
| ACAGTTATTA | 1.03 ± 0.028 |
| ACGGATGTTT | 0.997 ± 0.022 |
| GGGGAGTGCA | 1 ± 0.035 |
| ATGTGGGTTT | 0.974 ± 0.021 |
| TTTGTTAGAC | 1.03 ± 0.022 |

| Sequence | switch fluorescence ratio |
| --- | --- |
| TGGGCGAATG | 0.9946 ± 0.0058 |
| GTTCTTTTGG | 0.973 ± 0.01 |
| GTGGGCATGG | 0.977 ± 0.022 |
| GGCGGGGACG | 0.999 ± 0.022 |
| TGTAAAGGGG | 1.01 ± 0.029 |
| GTTGTACGGG | 1.02 ± 0.047 |
| CTCGGGACTT | 0.9884 ± 0.0024 |
| TCACTGGTTC | 1.032 ± 0.0038 |
| CAAAAAATC | 1.02 ± 0.028 |
| GAACGTCTGC | 1.08 ± 0.011 |
| CTTGGGGCGC | 1.01 ± 0.049 |
| CATGGGTTTG | 0.9923 ± 0.0031 |
| TTAACATACG | 1.38 ± 0.042 |
| GAGGCTAGGT | 1.01 ± 0.029 |
| GTTGCGACGG | 1 ± 0.028 |
| GATGGGAGGA | 0.9639 ± 0.005 |
| CCAAGGGGGA | 1.09 ± 0.1 |
| ATATGGATAC | 1.05 ± 0.045 |
| GAAGGGAGTG | 0.986 ± 0.084 |
| TATTCCGTCC | 1.1 ± 0.049 |
| CTGAAAAATT | 1.01 ± 0.078 |
| GGTGTAGCGG | 0.982 ± 0.065 |
| GGGTATTGAT | 1.01 ± 0.042 |

| Sequence | switch fluorescence ratio |
| --- | --- |
| TTTTTGTTGT | 1.01 ± 0.052 |
| CAAAGCATCA | 1.05 ± 0.029 |
| GGGATTGTGT | 0.963 ± 0.055 |
| ATAGGCACGG | 1 ± 0.04 |
| TCGAAAATGT | 1.01 ± 0.081 |
| CAGGTGGTTG | 1.01 ± 0.035 |
| CTATTTAGGG | 0.996 ± 0.024 |
| TCCATCAGTA | 0.985 ± 0.024 |
| ATTAAAAATC | 0.968 ± 0.036 |
| ATCAGGGAGT | 1 ± 0.011 |
| TTGTGAGCAA | 1.33 ± 0.11 |
| TTTGTAAGTT | 0.995 ± 0.03 |
| GTGGGGAGTC | 0.992 ± 0.015 |
| CGTGTAAGTA | 1.011 ± 0.0044 |
| TGGGAGAGTA | 0.996 ± 0.034 |
| ATCCTGCTTT | 1.01 ± 0.069 |
| GGAACGTATT | 1.0119 ± 8.1e-05 |
| GAGGGTTGCT | 1.01 ± 0.036 |
| ATTACGGGAT | 1.01 ± 0.062 |
| GGATAAGGTT | 0.9871 ± 0.0022 |
| TATACATGCG | 1.04 ± 0.025 |
| ATGTATCAGG | 1.03 ± 0.022 |
| TTAGAGGGAC | 0.971 ± 0.014 |

| Sequence | switch fluorescence ratio |
| --- | --- |
| CGAGCGGGGG | 1.01 ± 0.047 |
| GGCTGTACAC | 1.0831 ± 0.001 |
| GGTCCTGCAA | 1.76 ± 1.1 |
| TTTTGATGAC | 1.01 ± 0.047 |
| TTAGCGCCGG | 1.03 ± 0.034 |
| TAAGGTCGAT | 1.01 ± 0.022 |
| GGAATTAAAT | 0.985 ± 0.027 |
| GATTGAGGAA | 0.9864 ± 0.0061 |
| AGCGGGAGGG | 1.02 ± 0.015 |
| TCCACGATTA | 1.108 ± 0.011 |
| TGAGATGGTC | 1.004 ± 0.01 |
| CGACGAAACT | 1.15 ± 0.021 |
| ACGTCAGTTG | 0.975 ± 0.012 |
| ATTATCGCGC | 0.983 ± 0.031 |
| ACTCTGGGC | 1.17 ± 0.21 |
| TTGGCTTCAT | 0.968 ± 0.016 |
| GGGCTTGGGC | 0.976 ± 0.035 |
| GTTTTTTGAT | 1.008 ± 0.0042 |
| AGGGAGAAGG | 1 ± 0.011 |
